From paper PMC13038415 (Nature Chemical Biology, 2026)
“And” between values parts separate entries of the source, which are not always exact repeats. Equal values may be shown once. Read-outs that look alike come from different tables or passages of the source.

Experiments:
Assay in all cases: mass photometry
[1] = target: full-length dynein complex AAA3^WB (E2488Q) (yeast, UniProt P36022 1-4092; P40960 1-533; Q04949 1-312; Q02647 1-92, E2488Q)
[2] = target: T1, full-length dynein complex AAA3^WA (dynein-K2424A) (yeast, UniProt P36022 1-4092; P40960 1-533; Q04949 1-312; Q02647 1-92, K2424A)
T1 sequence (P36022 whole entry K2424A, chain 1 of 4): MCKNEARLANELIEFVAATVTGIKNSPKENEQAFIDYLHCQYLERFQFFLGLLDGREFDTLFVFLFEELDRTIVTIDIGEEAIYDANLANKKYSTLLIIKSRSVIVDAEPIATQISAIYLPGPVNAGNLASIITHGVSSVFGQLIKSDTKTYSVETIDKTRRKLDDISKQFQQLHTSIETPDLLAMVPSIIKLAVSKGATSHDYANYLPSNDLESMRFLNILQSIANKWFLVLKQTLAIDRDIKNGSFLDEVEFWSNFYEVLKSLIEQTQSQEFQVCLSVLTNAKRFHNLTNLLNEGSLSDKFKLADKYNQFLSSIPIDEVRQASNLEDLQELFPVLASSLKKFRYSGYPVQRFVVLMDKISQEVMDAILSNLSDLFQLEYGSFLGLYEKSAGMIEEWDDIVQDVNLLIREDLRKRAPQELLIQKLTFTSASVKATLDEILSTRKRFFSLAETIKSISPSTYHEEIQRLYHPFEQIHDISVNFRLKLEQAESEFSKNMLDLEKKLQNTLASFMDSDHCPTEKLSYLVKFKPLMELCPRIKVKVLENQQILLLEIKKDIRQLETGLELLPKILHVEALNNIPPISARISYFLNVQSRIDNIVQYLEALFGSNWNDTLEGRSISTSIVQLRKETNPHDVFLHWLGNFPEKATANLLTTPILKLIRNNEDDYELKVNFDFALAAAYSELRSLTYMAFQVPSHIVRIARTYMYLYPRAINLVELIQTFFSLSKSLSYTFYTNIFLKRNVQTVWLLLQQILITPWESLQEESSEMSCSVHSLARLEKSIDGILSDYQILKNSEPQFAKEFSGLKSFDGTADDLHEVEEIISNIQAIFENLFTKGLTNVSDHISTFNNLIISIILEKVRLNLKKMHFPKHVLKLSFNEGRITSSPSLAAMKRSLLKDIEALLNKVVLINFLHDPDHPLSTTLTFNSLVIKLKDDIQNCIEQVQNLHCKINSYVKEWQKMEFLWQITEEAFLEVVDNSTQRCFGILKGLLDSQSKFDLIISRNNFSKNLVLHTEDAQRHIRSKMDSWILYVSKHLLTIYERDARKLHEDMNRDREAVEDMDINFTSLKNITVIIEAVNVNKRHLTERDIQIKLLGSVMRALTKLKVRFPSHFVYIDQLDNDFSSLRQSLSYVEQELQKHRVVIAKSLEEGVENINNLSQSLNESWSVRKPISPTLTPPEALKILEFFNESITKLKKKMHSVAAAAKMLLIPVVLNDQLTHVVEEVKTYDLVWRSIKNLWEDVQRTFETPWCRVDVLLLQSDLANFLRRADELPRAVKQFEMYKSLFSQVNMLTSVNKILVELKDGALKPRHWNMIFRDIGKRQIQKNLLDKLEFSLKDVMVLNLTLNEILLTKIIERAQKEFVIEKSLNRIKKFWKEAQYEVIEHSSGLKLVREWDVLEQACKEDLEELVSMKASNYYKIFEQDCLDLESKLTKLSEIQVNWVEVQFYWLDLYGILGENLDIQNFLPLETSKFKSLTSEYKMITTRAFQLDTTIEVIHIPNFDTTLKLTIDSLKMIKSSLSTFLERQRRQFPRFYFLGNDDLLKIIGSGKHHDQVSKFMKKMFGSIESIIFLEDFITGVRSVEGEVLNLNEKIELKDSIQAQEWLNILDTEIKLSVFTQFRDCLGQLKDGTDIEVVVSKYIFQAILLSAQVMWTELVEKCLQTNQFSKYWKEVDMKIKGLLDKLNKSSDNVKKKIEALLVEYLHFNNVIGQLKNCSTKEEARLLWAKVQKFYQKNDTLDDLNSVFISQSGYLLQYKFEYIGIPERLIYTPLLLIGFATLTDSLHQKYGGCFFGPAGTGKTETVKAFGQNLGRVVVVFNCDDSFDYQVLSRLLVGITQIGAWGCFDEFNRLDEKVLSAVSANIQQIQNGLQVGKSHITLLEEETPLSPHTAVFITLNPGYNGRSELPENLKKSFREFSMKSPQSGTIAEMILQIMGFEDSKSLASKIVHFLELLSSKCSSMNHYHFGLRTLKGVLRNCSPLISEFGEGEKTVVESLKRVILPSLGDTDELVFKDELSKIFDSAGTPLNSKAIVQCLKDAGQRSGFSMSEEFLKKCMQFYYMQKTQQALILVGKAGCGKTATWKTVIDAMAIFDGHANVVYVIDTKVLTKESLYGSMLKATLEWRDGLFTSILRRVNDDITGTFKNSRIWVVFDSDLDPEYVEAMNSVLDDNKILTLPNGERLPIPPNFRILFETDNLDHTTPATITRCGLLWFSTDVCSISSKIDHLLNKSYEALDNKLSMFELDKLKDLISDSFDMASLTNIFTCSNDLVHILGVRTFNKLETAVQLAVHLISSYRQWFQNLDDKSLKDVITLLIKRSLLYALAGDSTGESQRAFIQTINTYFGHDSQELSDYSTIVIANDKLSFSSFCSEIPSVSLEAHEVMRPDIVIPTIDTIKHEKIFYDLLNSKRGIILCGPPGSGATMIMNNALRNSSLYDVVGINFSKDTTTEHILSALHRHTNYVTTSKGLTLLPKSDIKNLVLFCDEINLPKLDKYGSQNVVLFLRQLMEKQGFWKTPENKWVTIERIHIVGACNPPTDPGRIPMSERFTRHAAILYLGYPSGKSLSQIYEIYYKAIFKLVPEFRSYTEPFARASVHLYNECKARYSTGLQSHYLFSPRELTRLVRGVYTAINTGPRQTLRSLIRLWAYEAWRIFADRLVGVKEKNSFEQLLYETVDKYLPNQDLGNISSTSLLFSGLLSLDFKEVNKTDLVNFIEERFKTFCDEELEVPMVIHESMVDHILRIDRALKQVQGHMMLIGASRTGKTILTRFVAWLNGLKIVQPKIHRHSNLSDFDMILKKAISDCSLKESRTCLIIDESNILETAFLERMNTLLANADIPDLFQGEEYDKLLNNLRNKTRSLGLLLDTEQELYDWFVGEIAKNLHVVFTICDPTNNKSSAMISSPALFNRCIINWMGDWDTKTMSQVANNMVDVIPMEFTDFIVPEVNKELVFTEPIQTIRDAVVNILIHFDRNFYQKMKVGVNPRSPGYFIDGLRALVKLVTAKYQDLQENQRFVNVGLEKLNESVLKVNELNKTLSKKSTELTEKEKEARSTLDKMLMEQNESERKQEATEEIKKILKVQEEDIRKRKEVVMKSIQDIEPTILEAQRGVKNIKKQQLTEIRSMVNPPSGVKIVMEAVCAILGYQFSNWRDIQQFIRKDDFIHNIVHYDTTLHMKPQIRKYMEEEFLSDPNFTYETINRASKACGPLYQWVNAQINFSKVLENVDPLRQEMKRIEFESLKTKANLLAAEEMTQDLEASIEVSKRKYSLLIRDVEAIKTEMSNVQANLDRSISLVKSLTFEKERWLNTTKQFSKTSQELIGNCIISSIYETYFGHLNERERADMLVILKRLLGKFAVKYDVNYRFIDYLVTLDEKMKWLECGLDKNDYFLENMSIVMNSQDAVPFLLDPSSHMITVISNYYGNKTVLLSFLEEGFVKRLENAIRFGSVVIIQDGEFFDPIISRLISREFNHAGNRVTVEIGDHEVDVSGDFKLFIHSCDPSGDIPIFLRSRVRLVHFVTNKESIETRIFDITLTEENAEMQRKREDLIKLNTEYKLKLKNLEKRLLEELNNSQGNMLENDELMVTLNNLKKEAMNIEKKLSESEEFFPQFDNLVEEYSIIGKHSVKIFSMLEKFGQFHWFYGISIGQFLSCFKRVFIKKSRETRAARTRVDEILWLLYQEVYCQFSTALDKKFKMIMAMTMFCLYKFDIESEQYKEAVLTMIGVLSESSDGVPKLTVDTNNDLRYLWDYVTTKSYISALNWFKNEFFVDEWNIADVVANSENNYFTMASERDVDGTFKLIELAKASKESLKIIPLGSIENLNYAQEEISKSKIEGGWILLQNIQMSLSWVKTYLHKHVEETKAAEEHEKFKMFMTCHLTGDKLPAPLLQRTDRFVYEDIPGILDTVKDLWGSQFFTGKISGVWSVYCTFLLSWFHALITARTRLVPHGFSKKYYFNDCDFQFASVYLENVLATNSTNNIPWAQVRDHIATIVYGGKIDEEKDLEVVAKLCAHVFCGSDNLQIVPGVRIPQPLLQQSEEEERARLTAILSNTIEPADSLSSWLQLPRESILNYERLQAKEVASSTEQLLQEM
T1 sequence (P40960 whole entry, chain 2 of 4): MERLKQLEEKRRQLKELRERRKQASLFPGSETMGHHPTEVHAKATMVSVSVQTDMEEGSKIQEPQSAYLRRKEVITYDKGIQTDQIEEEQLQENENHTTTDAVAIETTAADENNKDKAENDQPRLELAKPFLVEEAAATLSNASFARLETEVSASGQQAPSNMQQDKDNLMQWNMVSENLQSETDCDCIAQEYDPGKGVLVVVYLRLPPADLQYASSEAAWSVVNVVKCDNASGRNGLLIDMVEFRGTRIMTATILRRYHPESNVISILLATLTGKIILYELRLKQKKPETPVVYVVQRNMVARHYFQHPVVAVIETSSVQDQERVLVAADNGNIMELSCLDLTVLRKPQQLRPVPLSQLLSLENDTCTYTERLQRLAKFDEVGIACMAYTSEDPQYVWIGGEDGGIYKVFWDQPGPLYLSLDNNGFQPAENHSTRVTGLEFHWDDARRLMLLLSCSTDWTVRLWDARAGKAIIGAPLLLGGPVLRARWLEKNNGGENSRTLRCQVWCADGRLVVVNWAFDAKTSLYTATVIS
T1 sequence (Q04949 whole entry, chain 3 of 4): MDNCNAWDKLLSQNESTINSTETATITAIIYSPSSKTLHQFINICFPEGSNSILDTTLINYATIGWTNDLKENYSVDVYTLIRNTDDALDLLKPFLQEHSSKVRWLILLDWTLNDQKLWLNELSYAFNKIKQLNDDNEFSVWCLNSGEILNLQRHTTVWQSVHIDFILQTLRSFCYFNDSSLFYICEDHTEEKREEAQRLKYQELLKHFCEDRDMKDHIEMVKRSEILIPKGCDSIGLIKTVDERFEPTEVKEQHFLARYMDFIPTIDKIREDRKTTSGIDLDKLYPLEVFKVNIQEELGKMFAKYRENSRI
T1 sequence (Q02647 whole entry, chain 4 of 4): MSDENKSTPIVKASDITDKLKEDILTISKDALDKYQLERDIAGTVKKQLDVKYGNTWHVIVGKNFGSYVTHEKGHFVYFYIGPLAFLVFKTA

[3] = target: T1, full-length dynein complex AAA3^WA …; remark: listed apart in the source
[4] = target: T1, full-length dynein complex AAA3^WA …; remark: listed apart in the source

Binder | stoichiometry N [1] | stoichiometry N [2] | stoichiometry N [3] | binding result [4]
Pac1 (full-length; yeast homolog of Lis1) (natural protein) MTNWQQQLPLTDTQKNELDKSVLRYLNWNYKQTVRHEHAQDYESVRHAIVTLSGFLLQESVDRQEFISNNDTSNESMVDIDELLLPKKWNSIVRLQKKIIELEQNTETLVSQIKDLNTQVSELAQFKPTTSNGTSAHNVLKWIPRNLPSCLINVESSVTSVKLHPNLPIVFVATDHGKLYAFDLFNYTIPLASLQSHTKAITSMDVLFTNYTNSSKKNYLVIVTASKDLQIHVFKWVSEECKFQQIRSLLGHEHIVSAVKIWQKNNDVHIASCSRDQTVKIWDFHNGWSLKTFQPHSQWVRSIDVLGDYIISGSHDTTLRLTHWPSGNGLSVGTGHEFPIEKVKFIHFIEDSPEIRFRTPSTDRYKNWGMQYCVSASRDRTIKIWEIPLPTLMAHRAPIPNPTDSNFRCVLTLKGHLSWVRDISIRGQYLFSCADDKSVRCWDLNTGQCLHVWEKLHTGFVNCLDLDVDFDSNVTPRQMMVTGGLDCKSNVFMR | 1 Pac1 dimer per dynein complex and 2 Pac1 dimers per dynein complex | 1 Pac1 dimer per dynein complex | 2 Pac1 dimers per dynein complex | –
Pac1 site^linker mutant (T403A, S405A, N406A, R320A, V332A) (natural protein) MTNWQQQLPLTDTQKNELDKSVLRYLNWNYKQTVRHEHAQDYESVRHAIVTLSGFLLQESVDRQEFISNNDTSNESMVDIDELLLPKKWNSIVRLQKKIIELEQNTETLVSQIKDLNTQVSELAQFKPTTSNGTSAHNVLKWIPRNLPSCLINVESSVTSVKLHPNLPIVFVATDHGKLYAFDLFNYTIPLASLQSHTKAITSMDVLFTNYTNSSKKNYLVIVTASKDLQIHVFKWVSEECKFQQIRSLLGHEHIVSAVKIWQKNNDVHIASCSRDQTVKIWDFHNGWSLKTFQPHSQWVRSIDVLGDYIISGSHDTTLALTHWPSGNGLSAGTGHEFPIEKVKFIHFIEDSPEIRFRTPSTDRYKNWGMQYCVSASRDRTIKIWEIPLPTLMAHRAPIPNPADAAFRCVLTLKGHLSWVRDISIRGQYLFSCADDKSVRCWDLNTGQCLHVWEKLHTGFVNCLDLDVDFDSNVTPRQMMVTGGLDCKSNVFMR | – | – | – | binds
